Measurements from patent US20230212288A1 (published 2023).

Target: human CD3 receptor complex (human, UniProt P07766 23-207; P09693 23-182; P04234 22-171)
Test: cell-based or functional assay

Chain of human CD3 receptor complex (P07766 23-207, chain 1 of 3): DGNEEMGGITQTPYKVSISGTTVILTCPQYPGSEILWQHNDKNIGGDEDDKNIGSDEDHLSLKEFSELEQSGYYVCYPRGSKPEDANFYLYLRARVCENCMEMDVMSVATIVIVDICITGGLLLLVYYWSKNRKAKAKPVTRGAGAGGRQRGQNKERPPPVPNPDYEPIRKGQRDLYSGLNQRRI
Chain of human CD3 receptor complex (P09693 23-182, chain 2 of 3): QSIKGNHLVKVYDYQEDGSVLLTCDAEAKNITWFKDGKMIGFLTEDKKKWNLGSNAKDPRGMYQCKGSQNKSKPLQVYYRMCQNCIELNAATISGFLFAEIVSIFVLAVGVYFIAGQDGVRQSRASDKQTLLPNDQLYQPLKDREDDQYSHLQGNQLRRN
Chain of human CD3 receptor complex (P04234 22-171, chain 3 of 3): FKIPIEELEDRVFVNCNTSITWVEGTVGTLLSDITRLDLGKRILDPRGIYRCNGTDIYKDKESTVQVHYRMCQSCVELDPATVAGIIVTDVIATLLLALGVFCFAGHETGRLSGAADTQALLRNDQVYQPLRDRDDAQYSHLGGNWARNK

Binder	Activity (EC50 for activation of Jurkat line cells, pM)
418_03_E12 (bispecific antibody) DIQLTQTPASLAVSLGQRATISCKASQSVDYDGDSYLNWYQQIPGQPPKLLIYDASNLVSGIPPRFSGSGSGTDFTLNIHPVEKVDAATYHCQQSTEDPWTFGGGTKLEIKGGSGGAMAQVQLVESGGGVVQPGRSLRLSCAASGFTFSSYGMHWVRQAPGKGLEWVSSISSSSSYIYYADSVKGRFTISRDNAKNSLYLQMNSLRADDTAVYYCARRSFSSVFADYWGQGTLVTVSSGGGGSGGGGSGGGASNFMLTQPHSVSESPGKTVTISCTRSRGSIASNYVQWYQQRPGRAPTIVIFDDDQRPSGVPDRFSGSIDRSSDSASLRISGLKTEDEADYYCQSYATRSQSVVFGGGTKLTVLGQPAAAGGGGSQVQLQQSGAELVRPGSSVKISCKASGYAFSSYWMNWVKQRPGQGLEWIGQIWPGDGDTNYNGKFKGKATLTADESSSTAYMQLSSLASEDSAVYFCARRETTTVGRYYYAMDYWGQGTSVTVSSASAAVECPPCPAPPVAGPSVFLFPPKPKDTLMISRTPEVTCVVVDVSHEDPEVQFNWYVDGVEVHNAKTKPREEQFNSTFRVVSVLTVVHQDWLNGKEYKCKVSNKGLPAPIEKTISKTKGQPREPQVYTLPPSREEMTKNQVSLTCLVKGFYPSDIAVEWESNGQPENNYKTTPPMLDSDGSFFLYSKLTVDKSRWQQGNVFSCSVMHEALHNHYTQKSLSLSPGK	1 pM
309_01_G04 (bispecific antibody) DIQLTQTPASLAVSLGQRATISCKASQSVDYDGDSYLNWYQQIPGQPPKLLIYDASNLVSGIPPRFSGSGSGTDFTLNIHPVEKVDAATYHCQQSTEDPWTFGGGTKLEIKGGSGGAMAEVQLVESGGGVVQPGRSLRLSCAASGFTVSSNYMSWVRQAPGKGLEWVSAISGSGGSTYYADSVKGRFTTSRDNSKNTLYLQMNSLRAEDTAIYYCAKEDYYGGYFDYWGQGTMVTVSSGGGGSGGGGSGGGASNFMLTQPHSVSESPGKTVTISCTRSSGSIASNYVQWYQQRPGSSPTTVIYEDNQRPSGVPDRFSGSIDSSSNSASLTISGLKTEDEADYYCQSYDSSNQAVFGGGTKVTVLGQPAAAGGGGSQVQLQQSGAELVRPGSSVKISCKASGYAFSSYWMNWVKQRPGQGLEWIGQIWPGDGDTNYNGKFKGKATLTADESSSTAYMQLSSLASEDSAVYFCARRETTTVGRYYYAMDYWGQGTSVTVSSASAAVECPPCPAPPVAGPSVFLFPPKPKDTLMISRTPEVTCVVVDVSHEDPEVQFNWYVDGVEVHNAKTKPREEQFNSTFRVVSVLTVVHQDWLNGKEYKCKVSNKGLPAPIEKTISKTKGQPREPQVYTLPPSREEMTKNQVSLTCLVKGFYPSDIAVEWESNGQPENNYKTTPPMLDSDGSFFLYSKLTVDKSRWQQGNVFSCSVMHEALHNHYTQKSLSLSPGK	2 pM
418_03_H01 (bispecific antibody) DIQLTQTPASLAVSLGQRATISCKASQSVDYDGDSYLNWYQQIPGQPPKLLIYDASNLVSGIPPRFSGSGSGTDFTLNIHPVEKVDAATYHCQQSTEDPWTFGGGTKLEIKGGSGGAMAQVQLQQWGAGLLKPSETLSLTCAVYGGSFSRYYWSWIRQSPGKGLEWIGEIKHRGRTNYNPSLKSRVTMSVDTSKNQFSLQLRSVTAADTAVYYCARVYSSGWFSYWGQGTLVTVSSGGGGSGGGGSGGGASNFMLTQPHSVSESPGKTVTISCTRSSGSIARNYVQWYQQRPGSAPTTVIYEDNQRPSGVPDRFSGSIDSSSNSASLTISGLKTEDEADYYCQSYDGSNWVFGGGTKVTVLGQPAAAGGGGSQVQLQQSGAELVRPGSSVKISCKASGYAFSSYWMNWVKQRPGQGLEWIGQIWPGDGDTNYNGKFKGKATLTADESSSTAYMQLSSLASEDSAVYFCARRETTTVGRYYYAMDYWGQGTSVTVSSASAAVECPPCPAPPVAGPSVFLFPPKPKDTLMISRTPEVTCVVVDVSHEDPEVQFNWYVDGVEVHNAKTKPREEQFNSTFRVVSVLTVVHQDWLNGKEYKCKVSNKGLPAPIEKTISKTKGQPREPQVYTLPPSREEMTKNQVSLTCLVKGFYPSDIAVEWESNGQPENNYKTTPPMLDSDGSFFLYSKLTVDKSRWQQGNVFSCSVMHEALHNHYTQKSLSLSPGK	4.3 pM
309_01_A02 (bispecific antibody) DIQLTQTPASLAVSLGQRATISCKASQSVDYDGDSYLNWYQQIPGQPPKLLIYDASNLVSGIPPRFSGSGSGTDFTLNIHPVEKVDAATYHCQQSTEDPWTFGGGTKLEIKGGSGGAMAEVQLVESGGGLVKPGGSLRLSCAASGFTFSSYSMNWVRQAPGKGLEWVSSISSSSSYIYYADSVKGRFTISRDNAKNSLYLQMNSLRAEDTAVYYCARSSRIQAGMDVWGQGTLVTVSSGGGGSGGGGSGGGASNFMLTQPHSVSESPGKTVTISCTRSSGTIASTYVQWYQQRPGSSPTTVIYEDNQRPSGVPDRFSGSIDSSSNSASLTISGLKTEDAADYFCQSYDSNNRVFGGGTKVTVLGQPAAAGGGGSQVQLQQSGAELVRPGSSVKISCKASGYAFSSYWMNWVKQRPGQGLEWIGQIWPGDGDTNYNGKFKGKATLTADESSSTAYMQLSSLASEDSAVYFCARRETTTVGRYYYAMDYWGQGTSVTVSSASAAVECPPCPAPPVAGPSVFLFPPKPKDTLMISRTPEVTCVVVDVSHEDPEVQFNWYVDGVEVHNAKTKPREEQFNSTFRVVSVLTVVHQDWLNGKEYKCKVSNKGLPAPIEKTISKTKGQPREPQVYTLPPSREEMTKNQVSLTCLVKGFYPSDIAVEWESNGQPENNYKTTPPMLDSDGSFFLYSKLTVDKSRWQQGNVFSCSVMHEALHNHYTQKSLSLSPGK	7.9 pM
410_01_C03 (bispecific antibody) DIQLTQTPASLAVSLGQRATISCKASQSVDYDGDSYLNWYQQIPGQPPKLLIYDASNLVSGIPPRFSGSGSGTDFTLNIHPVEKVDAATYHCQQSTEDPWTFGGGTKLEIKGGSGGAMAQVQLQQWGAGLLKPSETLSLTCAVYGGSFSGYYWSWIRQPPGKGLEWIGEINHSGSTNYNPSLKSRVTISVDTSKNQFSLKLSSVTAADTAVYYCARATRNGAFDYWGQGTLVTVSSGGGGSGGGGSGGGASNFMLTQPHSVSESPGKTVTISCTRSSGRIASNYVQWYQQRPGSSPTTVIYEDNQRPSGVPDRFSGSIDSSSNSASLTISGLKTEDEADYYCQSYDSSNVVFGGGTQLTVLGQPAAAGGGGSQVQLQQSGAELVRPGSSVKISCKASGYAFSSYWMNWVKQRPGQGLEWIGQIWPGDGDTNYNGKFKGKATLTADESSSTAYMQLSSLASEDSAVYFCARRETTTVGRYYYAMDYWGQGTSVTVSSASAAVECPPCPAPPVAGPSVFLFPPKPKDTLMISRTPEVTCVVVDVSHEDPEVQFNWYVDGVEVHNAKTKPREEQFNSTFRVVSVLTVVHQDWLNGKEYKCKVSNKGLPAPIEKTISKTKGQPREPQVYTLPPSREEMTKNQVSLTCLVKGFYPSDIAVEWESNGQPENNYKTTPPMLDSDGSFFLYSKLTVDKSRWQQGNVFSCSVMHEALHNHYTQKSLSLSPGK	3 pM
418_01_C05 (bispecific antibody) DIQLTQTPASLAVSLGQRATISCKASQSVDYDGDSYLNWYQQIPGQPPKLLIYDASNLVSGIPPRFSGSGSGTDFTLNIHPVEKVDAATYHCQQSTEDPWTFGGGTKLEIKGGSGGAMAEVQLVESGGGVVQPGRSLRLSCAASGFTFSSYGMHWVRQAPGKGLEWVSYINSRSSTIYYADSVKGRFTISRDNAKNSLYLQMNSLRDEDTAVYYCAKDKPLSGYAFDIWGQGTTVTVSSGGGGSGGGGSGGGASNFMLTQPHSVSESPGKTVTISCTRSSGSIASNFVQWYQQRPGRAPTIVIFDDDQRPSGVPDRFSGSIDRSSDSASLSISGLKTEDEADYYCQSYATRTQGVVFGGGTKVTVLGQPAAAGGGGSQVQLQQSGAELVRPGSSVKISCKASGYAFSSYWMNWVKQRPGQGLEWIGQIWPGDGDTNYNGKFKGKATLTADESSSTAYMQLSSLASEDSAVYFCARRETTTVGRYYYAMDYWGQGTSVTVSSASAAVECPPCPAPPVAGPSVFLFPPKPKDTLMISRTPEVTCVVVDVSHEDPEVQFNWYVDGVEVHNAKTKPREEQFNSTFRVVSVLTVVHQDWLNGKEYKCKVSNKGLPAPIEKTISKTKGQPREPQVYTLPPSREEMTKNQVSLTCLVKGFYPSDIAVEWESNGQPENNYKTTPPMLDSDGSFFLYSKLTVDKSRWQQGNVFSCSVMHEALHNHYTQKSLSLSPGK	1.5 pM
309_01_G12 (bispecific antibody) DIQLTQTPASLAVSLGQRATISCKASQSVDYDGDSYLNWYQQIPGQPPKLLIYDASNLVSGIPPRFSGSGSGTDFTLNIHPVEKVDAATYHCQQSTEDPWTFGGGTKLEIKGGSGGAMAEVQLVQSGAEVKKPGASVKVSCKASGYTFTGYYMHWVRQAPGQGLEWMGRINPNSGGTNYAQKFQGRVTMTRDTSISTAYMELSRLRSDDAAVYYCARPSRYSNYVDWGQGTTVTVSSGGGGSGGGGSGGGASNFMLTQPHSVSESPGKTVTISCTRSSGSIASNYVQWYQQRPGSAPTTVIYDDDQRPSGVPDRFSGSIDRSSNSASLTISGLKTEDEADYYCQSYDNTNPWVFGGGTKLTVLGQPAAAGGGGSQVQLQQSGAELVRPGSSVKISCKASGYAFSSYWMNWVKQRPGQGLEWIGQIWPGDGDTNYNGKFKGKATLTADESSSTAYMQLSSLASEDSAVYFCARRETTTVGRYYYAMDYWGQGTSVTVSSASAAVECPPCPAPPVAGPSVFLFPPKPKDTLMISRTPEVTCVVVDVSHEDPEVQFNWYVDGVEVHNAKTKPREEQFNSTFRVVSVLTVVHQDWLNGKEYKCKVSNKGLPAPIEKTISKTKGQPREPQVYTLPPSREEMTKNQVSLTCLVKGFYPSDIAVEWESNGQPENNYKTTPPMLDSDGSFFLYSKLTVDKSRWQQGNVFSCSVMHEALHNHYTQKSLSLSPGK	13.8 pM
410_01_C09 (bispecific antibody) DIQLTQTPASLAVSLGQRATISCKASQSVDYDGDSYLNWYQQIPGQPPKLLIYDASNLVSGIPPRFSGSGSGTDFTLNIHPVEKVDAATYHCQQSTEDPWTFGGGTKLEIKGGSGGAMAEVQLVQSGAEVKKPGASVKVSCKASGYTFTSYYMYWVRQAPGQGLEWMGRINPNSGGTNYAQKFQGRVTMTRDTSISTAYMELSRLRSDDTAVYYCARPSRYSNYVDWGQGTLVTVSSGGGGSGGGGSGGGASNFMLTQPHSVSESPGKTVTISCTRSSGSIASNYVQWYQQRPGSSPTTVIYEDNQRPSGVPDRFSGSIDSSSNSASLTISGLKTEDEADYYCQSYDSRWIWVSGGGTKVTVLGQPAAAGGGGSQVQLQQSGAELVRPGSSVKISCKASGYAFSSYWMNWVKQRPGQGLEWIGQIWPGDGDTNYNGKFKGKATLTADESSSTAYMQLSSLASEDSAVYFCARRETTTVGRYYYAMDYWGQGTSVTVSSASAAVECPPCPAPPVAGPSVFLFPPKPKDTLMISRTPEVTCVVVDVSHEDPEVQFNWYVDGVEVHNAKTKPREEQFNSTFRVVSVLTVVHQDWLNGKEYKCKVSNKGLPAPIEKTISKTKGQPREPQVYTLPPSREEMTKNQVSLTCLVKGFYPSDIAVEWESNGQPENNYKTTPPMLDSDGSFFLYSKLTVDKSRWQQGNVFSCSVMHEALHNHYTQKSLSLSPGK	2.2 pM
